# Data from patent US20140315817A1 (ALBUMEDIX, published 2014).
# Biological target: T1, hsa-1: WT - Full Length HSA (human, UniProt P02768 25-609)
# T1 construct: Yeast-expressed; also called HSA-wt; wt-HSA; not shown: Factor Xa cleavage site
# Experiment: method and origin of the value not stated
binder,measurement,value
"recombinant mouse FcRn (R&D Systems, cat#6775-FC-050) (receptor, Bought reagent) chain 1: SETRPPLMYHLTAVSNPSTGLPSFWATGWLGPQQYLTYNSLRQEADPCGAWMWENQVSWYWEKETTDLKSKEQLFLEALKTLEKILNGTYTLQGLLGCELASDNSSVPTAVFALNGEEFMKFNPRIGNWTGEWPETEIVANLWMKQPDAARKESEFLLNSCPERLLGHLERGRRNLEWKEPPSMRLKARPGNSGSSVLTCAAFSFYPPELKFRFLRNGLASGSGNCSTGPNGDGSFHAWSLLEVKRGDEHHYQCQVEHEGLAQPLTVDLDSSARSS chain 2: IQKTPQIQVYSRHPPENGKPNILNCYVTQFHPPHIEIQMLKNGKKIPKVEMSDMSFSKDWSFYILAHTEFTPTETDTYACRVKHASMAEPKTVYWDRDM",Kd,~80 µM
